# Source: paper PMC9237840
# T1: Ribbon (Rib) full-length (Drosophila melanogaster, UniProt Q7KF43 1-661)
# T1 sequence: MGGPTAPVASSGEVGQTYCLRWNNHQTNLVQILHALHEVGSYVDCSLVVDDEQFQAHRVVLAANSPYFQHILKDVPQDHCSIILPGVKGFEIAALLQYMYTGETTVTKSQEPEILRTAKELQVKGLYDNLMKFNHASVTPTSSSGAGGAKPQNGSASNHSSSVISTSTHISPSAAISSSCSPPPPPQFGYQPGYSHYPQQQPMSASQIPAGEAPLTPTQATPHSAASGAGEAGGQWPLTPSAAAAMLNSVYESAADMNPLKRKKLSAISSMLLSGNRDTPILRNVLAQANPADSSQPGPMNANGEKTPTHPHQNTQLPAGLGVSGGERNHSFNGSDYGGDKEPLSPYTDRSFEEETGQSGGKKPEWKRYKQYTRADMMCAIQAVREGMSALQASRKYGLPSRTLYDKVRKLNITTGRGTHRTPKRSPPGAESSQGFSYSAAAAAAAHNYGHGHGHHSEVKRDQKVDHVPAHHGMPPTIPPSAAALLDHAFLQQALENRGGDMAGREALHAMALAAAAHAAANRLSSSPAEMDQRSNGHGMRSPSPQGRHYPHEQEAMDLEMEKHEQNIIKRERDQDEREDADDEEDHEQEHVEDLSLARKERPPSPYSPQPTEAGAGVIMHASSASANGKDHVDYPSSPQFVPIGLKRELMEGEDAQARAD
# T2: CrebA full-length (Drosophila melanogaster, UniProt P29747 1-516)
# T2 sequence: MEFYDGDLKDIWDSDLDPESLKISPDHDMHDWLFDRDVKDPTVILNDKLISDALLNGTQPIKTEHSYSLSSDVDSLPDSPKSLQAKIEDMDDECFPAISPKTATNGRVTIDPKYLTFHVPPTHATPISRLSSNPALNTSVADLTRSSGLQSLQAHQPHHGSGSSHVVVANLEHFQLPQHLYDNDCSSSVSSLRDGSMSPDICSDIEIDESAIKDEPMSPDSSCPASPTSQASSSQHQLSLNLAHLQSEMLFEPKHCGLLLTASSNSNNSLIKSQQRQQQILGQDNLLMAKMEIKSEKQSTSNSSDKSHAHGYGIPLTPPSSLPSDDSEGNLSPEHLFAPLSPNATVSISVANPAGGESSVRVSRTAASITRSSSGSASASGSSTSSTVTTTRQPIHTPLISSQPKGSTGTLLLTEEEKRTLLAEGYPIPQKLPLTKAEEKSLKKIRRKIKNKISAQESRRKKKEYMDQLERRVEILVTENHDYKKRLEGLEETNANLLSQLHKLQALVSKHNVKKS
# T3: GST-Rib-PSQ DNA-binding domain (Drosophila melanogaster, UniProt Q7KF43 363-414)
# T3 sequence: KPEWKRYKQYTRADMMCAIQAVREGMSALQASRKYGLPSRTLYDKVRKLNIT
# B1: RpL17 (dsDNA)
# DNA 1: ACTGCCATTTCCTTTCTTTTTCGTTCCACGTTTCCGGTGAGTGCATGTGC
# DNA 2: GCACATGCACTCACCGGAAACGTGGAACGAAAAAGAAAGGAAATGGCAGT
# B2: RpS10b (dsDNA)
# DNA 1: ATCCCTTCCGTTTCCCTTTCTTTTCGTCTTCACGTTTCCGGTGAGTGCGT
# DNA 2: ACGCACTCACCGGAAACGTGAAGACGAAAAGAAAGGGAAACGGAAGGGAT
# B3: RpS27A (dsDNA)
# DNA 1: TTCAACTTCCTGTCACGCTGTGTGTGTGTTCTTTCTTTCCTTTGATTCTG
# DNA 2: CAGAATCAAAGGAAAGAAAGAACACACACACAGCGTGACAGGAAGTTGAA
# B4: RpS17* (T to G in TC-rich motif) (dsDNA)
# DNA 1: ACACAACCACCCTGGTCACACGGCATCCGGCGGGGGCGGGCGGGGCCGGC
# DNA 2: GCCGGCCCCGCCCGCCCCCGCCGGATGCCGTGTGACCAGGGTGGTTGTGT
# B5: RpL19 (dsDNA)
# DNA 1: TTCCGGCTGTCAAATTTTTCTTTCTTTCCTAGCCACGACGAGGTCGACAG
# DNA 2: CTGTCGACCTCGTCGTGGCTAGGAAAGAAAGAAAAATTTGACAGCCGGAA
# B6: RpS18 (dsDNA)
# DNA 1: GGCAGCCACATTAATTCGGCCTTCTTTTCTTTTCCCGTTTCCGGTGAGTG
# DNA 2: CACTCACCGGAAACGGGAAAAGAAAAGAAGGCCGAATTAATGTGGCTGCC
# B7: RpL6 (dsDNA)
# DNA 1: CCCTGGTCACACCGCTCTAGACATAACCTTCCTTTTCCAATAATTTTTGT
# DNA 2: ACAAAAATTATTGGAAAAGGAAGGTTATGTCTAGAGCGGTGTGACCAGGG
# B8: RpS3 (dsDNA)
# DNA 1: AACGTGTCTCGCGCGGGCACACTGGCCTCTTTCTTTTCTGCGCACCACGT
# DNA 2: ACGTGGTGCGCAGAAAAGAAAGAGGCCAGTGTGCCCGCGCGAGACACGTT
# B9: RpL7A (dsDNA)
# DNA 1: AACTGCCACTTCCTTTCTTTTTCGTTCCACGTTTCCGGTGAGTGCATGTG
# DNA 2: CACATGCACTCACCGGAAACGTGGAACGAAAAAGAAAGGAAGTGGCAGTT
# B10: RpL11 (dsDNA)
# DNA 1: CGCGGCCACACTATCCTTTCCTTCTTTTCTTACAAGTTTCCGGTGAGTGC
# DNA 2: GCACTCACCGGAAACTTGTAAGAAAAGAAGGAAAGGATAGTGTGGCCGCG
# B11: RpS17 (dsDNA)
# DNA 1: ACACAACCACCCTGGTCACACGGCATCCTTCTTTTTCTTTCGTTTCCGGC
# DNA 2: GCCGGAAACGAAAGAAAAAGAAGGATGCCGTGTGACCAGGGTGGTTGTGT
# B12: TSN-2 (dsDNA)
# DNA 1: ATCTGATTTGGTGACGTTGGCACCCTGCA
# DNA 2: TGCAGGGTGCCAACGTCACCAAATCAGAT
# B13: P24.1 (dsDNA)
# DNA 1: CCGATAGCATATACGTGGGTCCGCAGTGC
# DNA 2: GCACTGCGGACCCACGTATATGCTATCGG
# Target: T1, Ribbon (Rib) full-length
# Assay: EMSA
row,Binder,binding result
1,B1,binds
2,B2,binds
3,B3,binds
4,B4,binds
5,B5,binds
6,B6,binds
7,B7,binds
8,B8,binds
9,B9,binds
10,B10,binds
11,B11,binds

# Target: T2, CrebA full-length
# Assay: EMSA
row,Binder,binding result
1,B12,binds
2,B13,binds

# Target: T3, GST-Rib-PSQ DNA-binding domain
# Assay: EMSA
row,Binder,binding result
1,B1,binds
2,B2,binds
3,B3,binds
4,B4,binds
5,B5,binds
6,B6,binds
7,B7,binds
8,B8,binds
9,B9,binds
10,B10,binds
11,B11,binds
